Changes are numbered by the printed parent chain. Each block holds one binder with its values, some of them ahead of it.
How the values were obtained:
[1] = biological target: T1, human CD71 extracellular domain (human, UniProt P02786 89-760); assay: primary ELISA of colonies, luminescence
T1 construct: also called hCD71; human CD71-ECD

[2] = biological target: T2, apical domain of human CD71 (human, UniProt P02786 189-383, limits assumed); assay: primary ELISA of colonies, luminescence
T2 construct: domain: apical domain; the panning antigen was 30% biotinylated; also called human apical domain of CD71

[3] = biological target: T2, apical domain of human CD71; assay: primary ELISA; signal on apical domain over signal on HSA
[4] = biological target: T1, human CD71 extracellular domain; assay: primary ELISA; signal on hCD71 over signal on HSA
[5] = biological target: human CD71 on cells (SKBR3; SW620-rLuc-KRAS) (human, UniProt P02786 1-760); assay: cell-based or functional assay
human CD71 on cells (SKBR3; SW620-rLuc-KRAS), sequence (P02786 whole entry): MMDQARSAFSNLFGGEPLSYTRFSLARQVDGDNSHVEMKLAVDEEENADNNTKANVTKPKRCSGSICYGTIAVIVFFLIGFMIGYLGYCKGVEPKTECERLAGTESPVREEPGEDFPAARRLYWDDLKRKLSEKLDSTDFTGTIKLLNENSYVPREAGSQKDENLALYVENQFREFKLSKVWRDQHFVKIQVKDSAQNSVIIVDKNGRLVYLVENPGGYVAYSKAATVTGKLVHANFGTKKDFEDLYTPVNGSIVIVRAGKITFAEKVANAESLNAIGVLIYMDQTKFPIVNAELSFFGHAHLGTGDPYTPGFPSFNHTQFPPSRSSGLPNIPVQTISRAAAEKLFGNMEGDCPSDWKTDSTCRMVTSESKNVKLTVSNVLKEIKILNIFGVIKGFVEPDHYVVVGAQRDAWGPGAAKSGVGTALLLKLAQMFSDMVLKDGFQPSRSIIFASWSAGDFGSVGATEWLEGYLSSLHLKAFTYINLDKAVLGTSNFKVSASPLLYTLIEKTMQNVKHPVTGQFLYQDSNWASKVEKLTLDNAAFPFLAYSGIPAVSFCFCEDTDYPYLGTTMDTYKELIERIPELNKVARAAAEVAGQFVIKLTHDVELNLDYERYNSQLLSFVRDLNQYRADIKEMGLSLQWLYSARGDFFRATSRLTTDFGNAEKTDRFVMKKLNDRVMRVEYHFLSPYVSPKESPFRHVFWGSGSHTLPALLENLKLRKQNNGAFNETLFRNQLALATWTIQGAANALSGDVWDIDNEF

T2 sequence (P02786 189-383 limits assumed): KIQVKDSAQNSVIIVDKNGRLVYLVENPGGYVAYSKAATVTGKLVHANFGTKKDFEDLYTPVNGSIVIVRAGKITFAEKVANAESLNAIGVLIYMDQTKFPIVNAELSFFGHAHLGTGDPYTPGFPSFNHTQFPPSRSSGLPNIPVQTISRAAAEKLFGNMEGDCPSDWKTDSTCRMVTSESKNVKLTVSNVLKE
T1 sequence (P02786 89-760): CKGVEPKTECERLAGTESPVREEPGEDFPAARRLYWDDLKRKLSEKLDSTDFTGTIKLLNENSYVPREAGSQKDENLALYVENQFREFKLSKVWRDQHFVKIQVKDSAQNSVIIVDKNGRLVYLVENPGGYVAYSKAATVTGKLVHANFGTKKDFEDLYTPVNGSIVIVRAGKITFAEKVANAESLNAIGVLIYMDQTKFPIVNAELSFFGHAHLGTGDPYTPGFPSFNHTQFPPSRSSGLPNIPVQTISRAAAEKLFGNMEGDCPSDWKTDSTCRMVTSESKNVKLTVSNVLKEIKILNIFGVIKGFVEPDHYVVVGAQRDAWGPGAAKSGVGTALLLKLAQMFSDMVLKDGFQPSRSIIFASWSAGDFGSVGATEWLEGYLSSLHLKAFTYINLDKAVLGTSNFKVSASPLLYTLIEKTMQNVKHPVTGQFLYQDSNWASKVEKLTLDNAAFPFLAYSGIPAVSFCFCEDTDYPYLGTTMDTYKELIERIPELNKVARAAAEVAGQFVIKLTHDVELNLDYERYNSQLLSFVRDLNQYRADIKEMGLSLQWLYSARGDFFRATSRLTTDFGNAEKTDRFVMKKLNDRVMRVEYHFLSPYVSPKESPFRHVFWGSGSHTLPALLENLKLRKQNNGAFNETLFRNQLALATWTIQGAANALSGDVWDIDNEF

B1: CD71-binding FN3 domain of SEQ ID NO: 103 (designed binder)
chain: MLPAPKNLVVSRVTEDSARLSWTAPDAAFDSFYIAYAEPRPDGEAIILGVPGSERSYDLTGLKPGTEYSVLIHGVKGGLLSSPLSAYSTT
notes: Screen 1 hit, tested from colonies in the primary ELISA; not shown: C-terminal poly-histidine tag added to each FN3 domain
hCD71, RLU [1]: 6.37e+06 RLU
Apical domain, RLU [2]: 5.3e+06 RLU
Apical domain:HSA [3]: 291 ratio
hCD71:HSA [4]: 350 ratio

B2: CD71-binding FN3 domain of SEQ ID NO: 118 (designed binder)
chain: B1 chain with I47T, G49W, L71T, Y87I, S88F
notes: as for B1
hCD71, RLU [1]: 641000 RLU
Apical domain, RLU [2]: 3.75e+06 RLU
Apical domain:HSA [3]: 1170 ratio
hCD71:HSA [4]: 200 ratio

B3: CD71-binding FN3 domain of SEQ ID NO: 108 (designed binder)
chain: B1 chain with I47L, G49Q, S85V, Y87K, S88F
notes: as for B1
hCD71, RLU [1]: 3.81e+06 RLU
Apical domain, RLU [2]: 5.77e+06 RLU
Apical domain:HSA [3]: 1720 ratio
hCD71:HSA [4]: 1140 ratio

B7: CD71-binding FN3 domain of SEQ ID NO: 527 (designed binder)
chain: MLPAPKNLVVSRVTEDSARLSWTAPDAAFDSFFIGYLEPQPPGEAIHLYVPGSERSYDLTGLKPGTEYNVTIQGVKGGFPSEPLIANFTT
CTG EC50 (CellTiter-Glo luminescent assay, SKBR3 cells, 72 h) [5]: 0.1 nM

B8: CD71-binding FN3 domain of SEQ ID NO: 497 (designed binder)
chain: B7 chain with H47T, Y49L, E82K, I85Y, N87Y
CTG EC50 (CellTiter-Glo luminescent assay, SKBR3 cells, 72 h) [5]: 31.3 nM

B9: CD71-binding FN3 domain of SEQ ID NO: 491 (designed binder)
chain: B7 chain with P42S, Y49I, E82D, I85V, N87S
CTG EC50 (CellTiter-Glo luminescent assay, SKBR3 cells, 72 h) [5]: 3.2 nM

B10: CD71-binding FN3 domain of SEQ ID NO: 112 (designed binder)
chain: B7 chain with H47D, Y49W, E82M, I85S, N87I
notes: as for B1
hCD71, RLU [1]: 5.41e+06 RLU
Apical domain, RLU [2]: 4.78e+06 RLU
Apical domain:HSA [3]: 1800 ratio
hCD71:HSA [4]: 2040 ratio

B11: CD71-binding FN3 domain of SEQ ID NO: 117 (designed binder)
chain: B7 chain with H47W, Y49L, E82T, I85S, N87I
notes: as for B1
hCD71, RLU [1]: 4.21e+06 RLU
Apical domain, RLU [2]: 5.33e+06 RLU
Apical domain:HSA [3]: 1420 ratio
hCD71:HSA [4]: 1120 ratio

B13: CD71-binding FN3 domain of SEQ ID NO: 113 (designed binder)
chain: B7 chain with H47Y, Y49L, E82D, I85S, N87I
notes: as for B1
hCD71, RLU [1]: 4.6e+06 RLU
Apical domain, RLU [2]: 5.94e+06 RLU
Apical domain:HSA [3]: 2120 ratio
hCD71:HSA [4]: 1640 ratio

B15: CD71-binding FN3 domain of SEQ ID NO: 104 (designed binder)
chain: B7 chain with Y49I, L62Q, E82D, I85V, N87S
notes: as for B1
hCD71, RLU [1]: 6.36e+06 RLU
Apical domain, RLU [2]: 4.43e+06 RLU
Apical domain:HSA [3]: 150 ratio
hCD71:HSA [4]: 216 ratio

B16: CD71-binding FN3 domain of SEQ ID NO: 107 (designed binder)
chain: B7 chain with H47G, Y49Q, E82M, I85S, N87I
notes: as for B1
hCD71, RLU [1]: 6.03e+06 RLU
Apical domain, RLU [2]: 4.23e+06 RLU
Apical domain:HSA [3]: 1300 ratio
hCD71:HSA [4]: 1860 ratio

B18: CD71-binding FN3 domain of SEQ ID NO: 105 (designed binder)
chain: MLPAPKNLVVSRVTEDSARLSWTAPDAAFDSFHIVYHEPRPSGEAIWLWVPGSERSYDLTGLKPGTEYEVGIVSVKGGDLSVPLSAIFTT
notes: as for B1
hCD71, RLU [1]: 1.51e+06 RLU
Apical domain, RLU [2]: 3.84e+06 RLU
Apical domain:HSA [3]: 1280 ratio
hCD71:HSA [4]: 503 ratio

B19: CD71-binding FN3 domain of SEQ ID NO: 114 (designed binder)
chain: B18 chain with W49F
notes: as for B1
hCD71, RLU [1]: 1.5e+06 RLU
Apical domain, RLU [2]: 3.59e+06 RLU
Apical domain:HSA [3]: 311 ratio
hCD71:HSA [4]: 130 ratio

B20: CD71-binding FN3 domain of SEQ ID NO: 110 (designed binder)
chain: B18 chain with W47Y, W49E, S85R, I87H
notes: as for B1
hCD71, RLU [1]: 5.17e+06 RLU
Apical domain, RLU [2]: 6e+06 RLU
Apical domain:HSA [3]: 2400 ratio
hCD71:HSA [4]: 2070 ratio

Other lines, results leading:

hCD71, RLU [1]: 3.13e+06 RLU
Apical domain, RLU [2]: 4.81e+06 RLU
Apical domain:HSA [3]: 1890 ratio
hCD71:HSA [4]: 1230 ratio
B4: CD71-binding FN3 domain of SEQ ID NO: 106 (designed binder)
chain: B1 chain with A28V, I47G, G49Y, S85T, Y87S, S88F
notes: as for B1

hCD71, RLU [1]: 308000 RLU
Apical domain, RLU [2]: 5.87e+06 RLU
Apical domain:HSA [3]: 1290 ratio
hCD71:HSA [4]: 68 ratio
B5: CD71-binding FN3 domain of SEQ ID NO: 102 (designed binder)
chain: MLPAPKNLVVSRVTEDSARLSWTAPDAAFDSFDIGYTEYGGYGEAIILQVPGSERSYDLTGLKPGTEYWVLIQGVKGGGSSVPLVAYFTT
notes: as for B1

CTG EC50 (CellTiter-Glo luminescent assay, SKBR3 cells, 72 h) [5]: 0.2 nM
B6: CD71-binding FN3 domain of SEQ ID NO: 469 (designed binder)
chain: B7 chain with E82L, I85V, N87T

hCD71, RLU [1]: 5.19e+06 RLU
Apical domain, RLU [2]: 4.58e+06 RLU
Apical domain:HSA [3]: 881 ratio
hCD71:HSA [4]: 999 ratio
B12: CD71-binding FN3 domain of SEQ ID NO: 115 (designed binder)
chain: B7 chain with H47D, T66I, E82L, I85Q, N87H
notes: as for B1

hCD71, RLU [1]: 3.7e+06 RLU
Apical domain, RLU [2]: 5.04e+06 RLU
Apical domain:HSA [3]: 1940 ratio
hCD71:HSA [4]: 1420 ratio
B14: CD71-binding FN3 domain of SEQ ID NO: 111 (designed binder)
chain: B7 chain with H47S, Y49W, E82I, I85W, N87I
notes: as for B1

hCD71, RLU [1]: 3.94e+06 RLU
Apical domain, RLU [2]: 3.35e+06 RLU
Apical domain:HSA [3]: 1030 ratio
hCD71:HSA [4]: 1210 ratio
B17: CD71-binding FN3 domain of SEQ ID NO: 109 (designed binder)
chain: B7 chain with H47I, Y49H, E82L, I85N
notes: as for B1

Reference: US20260151494A1 (ARO BIOTHERAPEUTICS, published 2026)
